According to the RNAGym collection of RNA variant scans (doi:10.1073/pnas.2313332121):

B1: TPR t1 (parent)
chain: GACCAAUCUGCCCUCAGAGCUCGAGAACAUCUUCGGAUGCAGAGGAGGCAGGCUUCGGUGGCGCGAUAGCGCCAACGUCCUCAACCUCCAAUGCAUCCCACCACAUGAUGAUGCCUGAAGAGCCUUGGUUUUUUG

Variants of: B1
Test: polymerase ribozyme fitness, log enrichment relative to wild type (log ratio); higher = more active; in vitro selection for triplet polymerase activity
In short: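 In triplicate, a single round of in vitro selection was run on each mutant library, PCR-built and transcribed, covering one subunit of a heterodimeric triplet polymerase ribozyme. Frozen incubation at −7 °C followed annealing with a biotinylated primer, partner subunit and triplets, and extended constructs were then gel-excised, streptavidin-captured and taken through RT-PCR. Fitness is the logarithm of genotype enrichment over wild-type enrichment, from inverse-variance-weighted replicate averages of Illumina-sequenced inputs and outputs. […] only genotypes with ≥10 input reads and ≥1 read per output were kept.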

| Variant | polymerase ribozyme fitness (log ratio) |
| --- | --- |
| G35C A95U | -4.31 |
| G36A A43C C73G | -4.51 |
| G36U G51C G69U | -2.55 |
| C34A G60A A103G C124U G135A | -5.23 |
| C34G U59A G117U U129G | -8.01 |
| C34G A37U U55G C72G U92C C124A | -5.91 |
| G36A C97U | -0.157 |
| G36U C53U G61A U96G | -2.34 |
| G35C C49G C98G | -2.89 |
| G36U G51C G69U C115U | -3.32 |
| G35U G71U | -5.03 |
| C34A G61C A91C A121U U134C | -5.66 |
| A37G C56U C102A | -1.87 |
| G35A C98G | -6.5 |
| G36A C70U | -1.06 |
| G36U C40U A43C A46U G48C | -5.24 |
| G35U G77C C123G | -5.04 |
| G36C C88A | -2.1 |
| C34G A111G U129G | -6.92 |
| G35C G120U | -3.99 |
| G36C G47A C56A G71A U78G C115U A118G | -6.68 |
| C34U C85A A111U | -5.33 |
| G36A U125A | -1.27 |
| A37C C104A | -1.22 |

| Variant | polymerase ribozyme fitness (log ratio) |
| --- | --- |
| C34G C40U | -6.15 |
| C34U G63C A111C U132A | -4.98 |
| G35A C64U U87G | -4.86 |
| U33G C124G | -4.16 |
| C34G G120C | -4.78 |
| G35U G47A | -5.64 |
| G35A C73U U78G A90G C115G A121C | -5.51 |
| G35A G113A | -4.16 |
| G36U C123U | 0.205 |
| C34A C82U C97G | -3.48 |
| G36C G69A G71A U81G C88A G93C C99A C123U | -6.5 |
| A37C G44A C53A G63C C124A | -3.21 |
| C34A U54A G69U A121G | 1.52 |
| G36A G42A C72U | -4.34 |
| C34A C101G U129A | -4.66 |
| G35A A46U A83U U87C C104U | -4.09 |
| C34U C53U C56U | -5.01 |
| G36U U130G | -2.05 |
| C34G C73A | -5.35 |
| G35A G42C | -5.64 |
| U33G G69A C70A A111U | -7.15 |
| G35U C56U | -4.99 |
| C34A C97A C115G | -4.43 |
| G36U A91U | -2.67 |

| Variant | polymerase ribozyme fitness (log ratio) |
| --- | --- |
| G36A G42A C70U C72U | -4.5 |
| G36A G44A G77U A84U | -2.98 |
| C34A C82A U112A | -2.63 |
| C34G G69U C123A | -2.45 |
| C34U C70U | -5.65 |
| A37G C49A | -0.708 |
| C34A G113C G117C | -6.74 |
| G35A G57U A74U | -4.21 |
| G36A G48U A84G | -2.02 |
| C34A G135U | -3.05 |
| C34U C64U | -3.93 |
| C34A U78C | -2.79 |
| U33G C34G C72G G110A | -6.68 |
| C34A U133A | -2.19 |
| G36C G69A U112G G117A | -6.31 |
| G36U C40A | -3.53 |
| G35U G113A | -6.27 |
| G35U G63U C101A C115U | -5.79 |
| G36U C101A | -2.53 |
| G36C C104U | -1.1 |
| G36A G71A | -1.64 |
| G36C G60A C98U | -2.39 |
| G36C C56G C72U | -2.79 |
| G35C G39U | -5.8 |

| Variant | polymerase ribozyme fitness (log ratio) |
| --- | --- |
| A37G | -0.185 |
| A37C | -0.431 |
| G35A G42A U106A U112G A121C G127U G128A | -5.37 |
| G36U G63U C80U A84C | -4.1 |
| G35A G52C C86U | -6.34 |
| C34A G69C | -4.71 |
| C34A G69U | -0.154 |
| C34G C80U C89G G120C U129C | -6.96 |
| G36U U106A G127C | -1.83 |
| G36C C40U G48U U125A | -3.35 |
| C34G A43C G60U | -6.09 |
| C34A G48A U59C C101A | -5.32 |
| C34A C89U G117U | -5.32 |
| A37C G45C C72U C104G C115G | -7.48 |
| U33C G77C | -5.05 |
| U33G G39U A50U C70U A84U A91C C114A | -7.12 |
| G35U C40U G61A C124U | -4.87 |
| G36U G47C G117U | -6.43 |
| C34A G44C G69U C88A A91C G110A | -4.87 |
| U33G C94A G113C G117A | -6.01 |
| G35U G63A U67G C88A C124A G127C U132A | -7.2 |
| G35C C79U C104A C124A | -5.25 |
| A37C U54A C64U U109A | -6.92 |
| G36A G69A C73G G120A | -5.29 |

| Variant | polymerase ribozyme fitness (log ratio) |
| --- | --- |
| U33G G69C C80G A91C U92A C101U C115G | -7.68 |
| G36A U59A C89G | -3.6 |
| C34G G51U C104U | -6.64 |
| C34U U54A G69U C79U G93A U96A | -6.73 |
| G35U G69U C123A C124A | -1 |
| A37C G71U C101A G127C | -2.36 |
| C34G C99U U130A | -4.6 |
| C34U G120A U130A | -4.02 |
| G36A A43C | -3.56 |
| A37C A43U C49G | -3.33 |
| C34U C40U G42A A43G C104A U109A G135A | -4.93 |
| G35A C53G C62U G77C A84C C124G G135C | -3.97 |
| C34A C53A C56A | -2.66 |
| G36U G47U | -2.97 |
| U33C C62U | -5.05 |
| C34A U38A G71U C101U | -5.16 |
| G36U A46U C72G C82A U87C U130G | -3.54 |
| G36U A46U G52U G120A | -2.3 |
| C34A C72U C85A G113A | -5.11 |
| G36U C73U G107C | -6.17 |
| C34A G48U G61C C72G C94G A119G U133C | -3.16 |
| A37C A46C C124G | 0.609 |
| G36U C70G C89U | -5.64 |
| C34U G61A | -4.7 |

| Variant | polymerase ribozyme fitness (log ratio) |
| --- | --- |
| G35U U67C U109A C115U | -5.63 |
| C34G A90C U112G | -6.02 |
| G36A U92A | -3.67 |
| C34G C53U C73U G113C C114G | -8.55 |
| A37C G44A A46C G47U U59C | -6.19 |
| C34G G69U | -2.21 |
| G35A G39A C70U C72U U109G C124U | -7.05 |
| A37C C53U C123U | 0.761 |
| C34G A43G C53A G71A A111C C123G | -7.9 |
| G35U C70U C72U G120C | -6.33 |
| C34A C53G C56A | -2.83 |
| G35C U38G G63C C123A U129A | -5.52 |
| C34U C56U | -4.1 |
| C34U A50U C102U U109A C124U | -5.84 |
| U33G G69U | -2.25 |
| A37C C62G G120U U125G U130C | -3.18 |
| U33G C70U G120U | -6.7 |
| G36U U81A | -2.11 |
| A37G C49G C82U | -0.637 |
| A37C G39U C56U | -2.66 |
| C34G A46C U106A G110A U130G U131A | -5.46 |
| C34A C73G G120A C124G U133A | -1.12 |
| C34U C101A | -4.07 |
| G36U G52A C97U G110A | -2.04 |

| Variant | polymerase ribozyme fitness (log ratio) |
| --- | --- |
| G36A G61U | 0.0512 |
| A37C G48C C53U U54A G60C C88A G93A C115U A121G | -6.81 |
| C34G G61A G113U G122U | -7.08 |
| G36A C124U | 0.816 |
| C34G A50U G61C A90G G110C | -7.04 |
| C34A C53A | -2.86 |
| A37G C49G C64G A111U U126G | -6.45 |
| C34U C114U U131A | -4.04 |
| C34A A74C C89G G113C A118C U131A | -5.57 |
| U33C C62U C99U C115U | -6.64 |
| G36A | -0.858 |
| G36U | -1.06 |
| G36C | -1.27 |
| G36A C88G | -2.65 |
| G36A C88A | -1.76 |
| G35C C53U C56G G120A | -2.61 |
| C34A C72U | -2.58 |
| C34A C85A G113A | -4.78 |
| G36U U55G C89G G113U | -4.27 |
| C34A C62A | -4.45 |
| A37C G60U C82U A83U U87A | -2.34 |
| G36U G57A | -2.09 |
| G35U G69A | -7.16 |
